These results are taken from the RNAGym collection of RNA variant scans (doi:10.1021/acssynbio.7b00057).

First the molecules themselves.
B1: Pistol ribozyme (parent)
chain: GGGUCGUUGUUCCAUAAUCGCGUGGAUAUGGCACGCAAGUUUCUACCGGGCACCGUAAAUGUCCGACUGGAGCCGUUCGGGCGGCUAUAAACAGACCUCAGGCCCGAAGCGUGGCGGCACCUGCCGCCGGUGGUAAAAAAGAUCGGAAGAGCACACGUCU

This data set covers variants of B1. Kind of data set: aptazyme ON/OFF ratio, guanine; higher = stronger switching; co-transcriptional cleavage with and without guanine.
Turning to GGGUCGUCAUCAUAUAAUCGCGUGGAUAUGGCACGCAAGUUUCUACCGGGCACCGUAAAUGUCCGACUGGAGCCGUUCGGGCGGCUAUAAACAGACCUCAGGCCCGAAGCGUGGCGGCACCUGCCGCCGGUGGUAAAAAAGAUCGGAAGAGCACACGUCU [U8C G9A U11C C12A C13U], the “aptazyme ON/OFF ratio” value came out at 1.17.

For the variant GGGUCGCUCUGUGAUAAUCGCGUGGAUAUGGCACGCAAGUUUCUACCGGGCACCGUAAAUGUCCGACUGGAGCCGUUCGGGCGGCUAUAAACAGACCUCAGGCCCGAAGCGUGGCGGCACCUGCCGCCGGUGGUAAAAAAGAUCGGAAGAGCACACGUCU [U7C G9C U11G C12U C13G], the “aptazyme ON/OFF ratio” value came out at 1.12.

For the variant GGGUCGAUGUCUCAUAAUCGCGUGGAUAUGGCACGCAAGUUUCUACCGGGCACCGUAAAUGUCCGACUGGAGCCGUUCGGGCGGCUAUAAACAGACCUCAGGCCCGAAGCGUGGCGGCACCUGCCGCCGGUGGUAAAAAAGAUCGGAAGAGCACACGUCU [U7A U11C C12U], the “aptazyme ON/OFF ratio” value was determined as 1.43.

Regarding GGGUCGAGUUGCUAUAAUCGCGUGGAUAUGGCACGCAAGUUUCUACCGGGCACCGUAAAUGUCCGACUGGAGCCGUUCGGGCGGCUAUAAACAGACCUCAGGCCCGAAGCGUGGCGGCACCUGCCGCCGGUGGUAAAAAAGAUCGGAAGAGCACACGUCU [U7A U8G G9U U11G C13U], the “aptazyme ON/OFF ratio” value was found to be 1.45.

Turning to GGGUCGAAGCCUUAUAAUCGCGUGGAUAUGGCACGCAAGUUUCUACCGGGCACCGUAAAUGUCCGACUGGAGCCGUUCGGGCGGCUAUAAACAGACCUCAGGCCCGAAGCGUGGCGGCACCUGCCGCCGGUGGUAAAAAAGAUCGGAAGAGCACACGUCU [U7A U8A U10C U11C C12U C13U], the “aptazyme ON/OFF ratio” value came out at 1.05.

For the variant GGGUCGUAUCAGGAUAAUCGCGUGGAUAUGGCACGCAAGUUUCUACCGGGCACCGUAAAUGUCCGACUGGAGCCGUUCGGGCGGCUAUAAACAGACCUCAGGCCCGAAGCGUGGCGGCACCUGCCGCCGGUGGUAAAAAAGAUCGGAAGAGCACACGUCU [U8A G9U U10C U11A C12G C13G], the “aptazyme ON/OFF ratio” value was found to be 1.12.

Turning to GGGUCGGGCAAGAAUAAUCGCGUGGAUAUGGCACGCAAGUUUCUACCGGGCACCGUAAAUGUCCGACUGGAGCCGUUCGGGCGGCUAUAAACAGACCUCAGGCCCGAAGCGUGGCGGCACCUGCCGCCGGUGGUAAAAAAGAUCGGAAGAGCACACGUCU [U7G U8G G9C U10A U11A C12G C13A], the “aptazyme ON/OFF ratio” value came to 1.08.

For the variant GGGUCGCUACAAAAUAAUCGCGUGGAUAUGGCACGCAAGUUUCUACCGGGCACCGUAAAUGUCCGACUGGAGCCGUUCGGGCGGCUAUAAACAGACCUCAGGCCCGAAGCGUGGCGGCACCUGCCGCCGGUGGUAAAAAAGAUCGGAAGAGCACACGUCU [U7C G9A U10C U11A C12A C13A], the “aptazyme ON/OFF ratio” value worked out at 1.12.

Regarding GGGUCGCAUACUUAUAAUCGCGUGGAUAUGGCACGCAAGUUUCUACCGGGCACCGUAAAUGUCCGACUGGAGCCGUUCGGGCGGCUAUAAACAGACCUCAGGCCCGAAGCGUGGCGGCACCUGCCGCCGGUGGUAAAAAAGAUCGGAAGAGCACACGUCU [U7C U8A G9U U10A U11C C12U C13U], the “aptazyme ON/OFF ratio” value was 1.21.

As to GGGUCGGCGAAAGAUAAUCGCGUGGAUAUGGCACGCAAGUUUCUACCGGGCACCGUAAAUGUCCGACUGGAGCCGUUCGGGCGGCUAUAAACAGACCUCAGGCCCGAAGCGUGGCGGCACCUGCCGCCGGUGGUAAAAAAGAUCGGAAGAGCACACGUCU [U7G U8C U10A U11A C12A C13G], the “aptazyme ON/OFF ratio” value amounted to 1.14.

As for GGGUCGCUUUAACAUAAUCGCGUGGAUAUGGCACGCAAGUUUCUACCGGGCACCGUAAAUGUCCGACUGGAGCCGUUCGGGCGGCUAUAAACAGACCUCAGGCCCGAAGCGUGGCGGCACCUGCCGCCGGUGGUAAAAAAGAUCGGAAGAGCACACGUCU [U7C G9U U11A C12A], the “aptazyme ON/OFF ratio” value stood at 1.36.

Take GGGUCGUGGCUGCAUAAUCGCGUGGAUAUGGCACGCAAGUUUCUACCGGGCACCGUAAAUGUCCGACUGGAGCCGUUCGGGCGGCUAUAAACAGACCUCAGGCCCGAAGCGUGGCGGCACCUGCCGCCGGUGGUAAAAAAGAUCGGAAGAGCACACGUCU [U8G U10C C12G]: the “aptazyme ON/OFF ratio” value was 1.49.

Consider GGGUCGCCGCCGGAUAAUCGCGUGGAUAUGGCACGCAAGUUUCUACCGGGCACCGUAAAUGUCCGACUGGAGCCGUUCGGGCGGCUAUAAACAGACCUCAGGCCCGAAGCGUGGCGGCACCUGCCGCCGGUGGUAAAAAAGAUCGGAAGAGCACACGUCU [U7C U8C U10C U11C C12G C13G], for which the “aptazyme ON/OFF ratio” value was 1.3.

With GGGUCGGAGGAUUAUAAUCGCGUGGAUAUGGCACGCAAGUUUCUACCGGGCACCGUAAAUGUCCGACUGGAGCCGUUCGGGCGGCUAUAAACAGACCUCAGGCCCGAAGCGUGGCGGCACCUGCCGCCGGUGGUAAAAAAGAUCGGAAGAGCACACGUCU [U7G U8A U10G U11A C12U C13U], the “aptazyme ON/OFF ratio” value came to 1.1.

In the case of GGGUCGGAAAAGUAUAAUCGCGUGGAUAUGGCACGCAAGUUUCUACCGGGCACCGUAAAUGUCCGACUGGAGCCGUUCGGGCGGCUAUAAACAGACCUCAGGCCCGAAGCGUGGCGGCACCUGCCGCCGGUGGUAAAAAAGAUCGGAAGAGCACACGUCU [U7G U8A G9A U10A U11A C12G C13U], the “aptazyme ON/OFF ratio” value was 1.14.

As for GGGUCGUGCCACUAUAAUCGCGUGGAUAUGGCACGCAAGUUUCUACCGGGCACCGUAAAUGUCCGACUGGAGCCGUUCGGGCGGCUAUAAACAGACCUCAGGCCCGAAGCGUGGCGGCACCUGCCGCCGGUGGUAAAAAAGAUCGGAAGAGCACACGUCU [U8G G9C U10C U11A C13U], the “aptazyme ON/OFF ratio” value is 1.1.

Regarding GGGUCGCACCCAGAUAAUCGCGUGGAUAUGGCACGCAAGUUUCUACCGGGCACCGUAAAUGUCCGACUGGAGCCGUUCGGGCGGCUAUAAACAGACCUCAGGCCCGAAGCGUGGCGGCACCUGCCGCCGGUGGUAAAAAAGAUCGGAAGAGCACACGUCU [U7C U8A G9C U10C U11C C12A C13G], the “aptazyme ON/OFF ratio” value stood at 1.

For GGGUCGCGUGGUUAUAAUCGCGUGGAUAUGGCACGCAAGUUUCUACCGGGCACCGUAAAUGUCCGACUGGAGCCGUUCGGGCGGCUAUAAACAGACCUCAGGCCCGAAGCGUGGCGGCACCUGCCGCCGGUGGUAAAAAAGAUCGGAAGAGCACACGUCU [U7C U8G G9U U10G U11G C12U C13U], the “aptazyme ON/OFF ratio” value amounted to 1.26.
